Measurements: the DeepSol protein solubility set

Assay: soluble on expression in E. coli; label from the status in PepcDB or PDB records

| Sequence | soluble on expression in E. coli |
| --- | --- |
| MVAAGDINVRVTSMDSELEFAIQSSTTGKQLFDQVVKTIGLREIWYFGLQYTDNKGFPTWLKLNKKVLSQDVKKDPTLVFKFRAKFYPEDVAEEIIQDVTMRLFYLQVKDGILSDEIYCPPETSVLLASYAMQAKYGDYVPETHVAGCLTADRLLPQRVLGQFKLNSEEWERRIMTWWADHRATTREQAMLEYLKIAQDLEMYGVNYFEIRNKKGTDLYLGVDALGLNIYDKADRLSPKVGFPWSEIRNISFNDKKFVIKPIDKKAHDFVFYAPRLRINKRILALCMGNHELYMRRRKPDTIEVQQMKQQAREDRALKIAEQEKLTREMSAREEAEQRQRDAEKRMAQMQEDMERARLELAEAHNTIHSLEAQLKQLQLAKQALEQKEYELRELTAQLQSEKAMSDGERRHLRDQVDAREREVFSMREEVERQTTVTRQLQTQIHSQQHTQHYSNSHHVSNGHAHDETATDDEDNGATELTNDADQNVPQHELERVTAAEKNIQIKNKLDMLTRELDSVKDQNAVTDYDVLHMENKKAGRDKYKTLRQIRGGNTKRRIDQYENM | not soluble |
| GDDYTQQQGEVEKQPNIDELKKRMEQSRLNKLRGDLDQLIESDPKLRALRPHLKIDLVQEGLRIQIIDSQNRPMFKTGSAEVEPYMRDILRAIAPVLNGIPNRISLAGHTDDFPYANGEKGYSNWELSADRANASRRELVAGGLDNGKVLRVVGMAATMRLSDRGPDDAINRRISLLVLNKQAEQAILHENAESQNEPVSVLQQHHHHHH | soluble |
| AQARMGDSRDLCPHLDSIGEVTKEDLLLKSKGTCQSCGVTGPNLWACLQVACPYVGCGESFADHSTIHAQAKKHNLTVNLTTFRLWCYACEKEVFLEQRLAAPLLGSSSKFSEQDSPPPSHPLKAVPIAVADEGESESEDDDLKPRGLTGMKNLGNSCYMNAALQALSNCPPLTQFFLECGGLVRTDKKPALCKSYQKLVSEVWHKKRPSYVVPTSLSHGIKLVNPMFRGYAQQDTQEFLRCLMDQLHEELKEPVVATVALTEARDSDSSDTDEKREGDRSPSEDEFLSCDSSSDRGEGDGQGRGGGSSQAETELLIPDEAGRVISEKERMKDRKFSWGQQRTNSEQVDEDADVDTAMAALDQPAEAQPPSPRSSSPCRTPEPDNDAHLRSSSRPCSPVHHHEGHAKLSSSPPRASPVRMAPSYVLKKAQVLSAGSRRRKEQRYRSVISDIFDGSILSLVQCLTCDRVSTTVETFQDLSLPIPGKEDLAKLHSAIYQNVPAKPGACGDSYAAQGWLAFIVEYIRRFVVSCTPSWFWGPVVTLEDCLAAFFAADELKGDNMYSCERCKKLRNGVKYCKVLRLPEILCIHLKRFRHEVMYSFKINSHVSFPLEGLDLRPFLAKECTSQITTYDLLSVICHHGTAGSGHYIAYCQNVINGQWYEFDDQYVTEVHETVVQNAEGYVLFYRKSSEEAMRERQQVVSLAAMREPSLLRFYVSREWLNKFNTFAEPGPITNQTFLCSHGGIPPHKYHYIDDLVVILPQNVWEHLYNRFGGGPAVNHLYVCSICQVEIEALAKRRRIEIDTFIKLNKAFQAEESPGVIYCISMQWFREWEAFVKGKDNEPPGPIDNSRIAQVKGSGHVQLKQGADYGQISEETWTYLNSLYGGGPEIAIRQSVAQPLGPENLHGEQKIEAETRAV | soluble |
| MERIERISEEIKREISDIIQNELKDPRLSKLISITEVNVTKDLRYAKVYVSVMGSEEEKANSLEGLKSAAGFIRREIGRRVQLRYTPEIHFELDNSIERGAYITKLINETSAQNKGSKDPEDT | soluble |
| MGSSHHHHHHSSGLVPRGSHMKRSSPVILVSEDEYGKFDESTNSILVKGKMHHLGISRVIEPGDELIVSGKSFIVSDFSPMYFGRVIRRNTQIISEIDASYIIMRCGLRPGMDILEVGVGSGNMSSYILYALNGKGTLTVVERDEDNLKKAMDNLSEFYDIGNVRTSRSDIADFISDQMYDAVIADIPDPWNHVQKIASMMKPGSVATFYLPNFDQSEKTVLSLSASGMHHLETVELMKRRILVREGATRPASDDLTHTAFITFAIKKSGMVYRI | soluble |
| MAYFFKNLVFEGGGVKGIAYIGALEVLQEEKIFPKIKRVAGTSAGAIMAVLIGLGYTPSEIKEIMWCLNFKNFMDDSWGIIQDTKRLIEKFGWYKGDFFRNWLGDLIKAKTGNSESTFADLAAMKGENKFLDISLIGTNLSTGFSEIFSAEHTPRICIADAARISMSIPLFFAAKRNFRNDVYVDGGMLNNYPVKVFDRTKYVTKNFTRTGYYEPINKKLEKRPRKIADYVYNKETLGFRLDSKEKIAFFRDNAEPPHRDIDSFFDYTVSLFGTLLSAQDDVHLHSDDWQRTIYIDTLGVKTTDFAISDAQKKALLESGRSYTQSYLEWYNNSEEKVNK | not soluble |
| MSSEPTSSIESDNLRRSKRKKFKLDFVAAAHGNNQKKSRKDPHGQGDDDDDTFDDDLNHFEPLSVLTEQDVSMEMFEDDEEDTVSRRRTRRSTAHFQDYQEPDRWIENSGPHACHKCPSRYESKSSLANHTKMHLGEKRKFACELCDFSASTLKSLTHHNNIHQNFGVLSQQTSPVIPVASSADSTLNSSINSTGCQINAPPAPKLDEEAPIAVESVVVHHEDVAEFDTTPPPILEREDDGPPVLIREAPVRKSNRPMKPTQKAQKMTKQRERKSKTVESPKGSLPSSSASSVTPPPVRKDVEKPKIFVKTTKKNLKKTMKITKVRQRCPHCPFTTSTVTRLNRHSGGHKLKEGYICPSENCNFMCRKAGFLQKHYILHKGTLPWPPEYVKKGGAKMKRTFPESEEKKIEVTEKVQKMKKMHKRRANTVQVVAKAQLKSYIKVEVDDVIFKKCNIGECEFLTQTLTQLIVHKVKTHDTKTAFPQHRFLCLTCGHRAKSYAALRTHKLIEHTSTHKRFHRTYYLKECVGDKFFVKYNLSKVQEEVKEEPKEADGDESGDESFDSMCPASDVHPETLAAIEMKDVFFCCNMCPYKAPTMNRCQRHYDKHFKNDEFKCQYCSWSSRSKEVIVNHEKLHPTVVVANTNEAPVVKNEIEAKVEVLSKTVSSPVECTEESSLSKSIQLWCQREKLRHPELDEQFTRKMIDGVKGFQCTDCPYTSKYRGDMRSHKKRHDIEQLYRCVQCTYTTNRPVSLKDHLKQHAIVNMSIADIKSRRVVVNQGVKIGMRRGVGKDKIYCCDKCPYVTLALGCLWRHHRNHRDTAKINICSNCSYSSIDQRKMEEHTIIHLGLGLNEAVPFVKRVDQKGRPVSSLTDLNSEKMNERKSTKRKMLDKVEKMEVGEDEEDDEESVDKGTDDGDYKQRPEKKRKQSSEEPASDPELFGSSSQPTRQLSERATRNRINYSLLSKNGSGKPTPSTSSANLEKLAGSSGGASSESPEPDESVEVSHWKIRTFLRSEYGVKESLKCPDCPYKSSEPDVLEKHRYYHMTKTTPRPYACSDCTFNTYTPTALLQHLKLHSEGVYFDPMVKKHMKHRKGDSIPPGVKGYYCKNCSFKTSIHRNFIEHSAYHRQQLINRINITLKRQPPRIEYQRPKLKHQFVAKNAKYCKKCTFKCVSQSNFIEHLDRHGWNQLYKCYSCDYSDNTKSVVDFHQLNHHIVKDQTLHSICQSAKFRLENGVIQIPETEKSKPTPDEFVSKTRGLLKCPSCEYFCHVSSELAFHMSVHHLTEPNARETISYLHMGLVPPKATVTTV | not soluble |
| TSITPSSQDICRICHCEGDDESPLITPCHCTGSLHFVHQACLQQWIKSSDTRCCELCKYEFIMETKL | soluble |
| MEQLLERIFDELAFLRANMATKDDVAALKDDIRALESRASHIEQTMATKDDIAAMDKRIGQIEQTMATKDDIASIEQRMATKDDVADIPFIKQAVMETLETINEIPAIKQTLAEALRKLDDVIASQARQELVLQSLAFRSLEQENEIRALKAK | not soluble |
| MSLNTIIQKAKETHELSRDEIIALLKDDSINEELFKAADEVRKKYLGDEVHLRGLIEFTNICKRNCMYCGLRRDNKNLNRYRLSHEEIIDFAKKAVGYGYKTLVLQGGEDDYYTVERLVPIVKDLKALGVALTLSIGERPFEEYEALKKAGADRFLLRIETTDRELYEELDPGMSHENRIQCLKNLRKLGYEVGSGCLVGLPGQKIESLADDILFFKELDVDMNGIGPFIPNEDTPLKDAEGGQFELALKVMAIVRLLLPDINIPATTAMETLNKQGRVIALQCGANVVMPNVTEGEYRKLYALYPGKICTGDTPAHCRGCISGKIRGIGRIVSDGPGFRANGFKPKTEGHHHHHH | soluble |
| MSLNTVVTALPYFQERAERVASAINAEFIHYHSGLFSELYRTTQRIVAIMAIGIVIRNIAPLIHDKWTDPAVVVISPDMQYAIPVLGGHHGANDLVYLLQERCGLTPVITTATEATGREAVEVLANREHLRIVNTRSTRQANASVLTGSAKVYRLPGPGMVIAGSGVSFLVADGPYSVGIGCRLGTSADEIVHAIHSACETAGISQEDIAIYATGGIKTHESGLLDAVRTLGRNIIFLNHSDLSEVAPPSQSAASRFGLPGVAEPAALAVSVHHHLILEKQIYGNVTIAIAEEGHHHHHH | not soluble |
| MKMFNIASEDDIKKGLASDVYFERSISTLTETCKDHRVAMEATVSGPLDTWINFSGLDEVLKLLEGIDVDVFAIPEGTILYPRDSNGIPVPFIRIEGNYCDFGMYETSILGMICQASGISTKSSKVRIAAGDCPFFSFGIRRMHPAVSPMIDRSAFIGGADGVSGILGAKLIGEEPIGTMPHALSIILGDDEAWRLTLKNTKNGQKSVILIDTYMDEKFAAIKVAEEFEHVDYIRLDTPSSRRGNFEALVREVKWELALRGRSDIKIMVSGGLDENTVAKLREAGAQAFGVGTSISSAKPFDFALDIVSIDDKPKTKRGKLSGKKSVLRCEKCRKVEVVPYGVESKPCSCGGVMHNIIVKYMEHGKLLSQYPEPKEIRKRTLSELEYFRSSN | soluble |
| MSLKKETLSDRLNKAMELAGMSQGALAKASGVAQPTIWRLTSGNARGSTKIVEIANALGVNSEWLSTGIGPMKKDGTTPINASPSSNTFKIDILDLEVSAGPGVINREFVEILRSVEYSQDDARHMFDGRKAENIRIINVRGDSMSGTIEPGDLLFVDVSIKNFDGDGIYAFLYDDTAHVKRLQKMKDKLLVISDNKSYSAWDPIERDEMNRVFVFGKVIGSMPQTYRKHGEGHHHHHH | soluble |
| GGQFIAFLRNITERKRAEALHRMGQDILLALNENEDMKEAIQRVLGLLRSATGVDAVGIRLQDGDDFPYFYQEGFPPDFLQKEDSIVARNKDGGVCRDSCGNVCLECTCGMVISGSTDHANPLFTPGGSAWTNDSFPYLEVPADQDPRTTPRDECIHQGYASIALIPIRAKGRIVGLLQLNDRRKGRFTREGIEALEDIAKNIGEAMLRKQAEEKLVASERFLRMLTNQLPGMVGYWDRD | not soluble |
| MKFFVFALILALMLSMTGADSHAKRHHGYKRKFHEKHHSHRGYRSNYLYDNLEHHHHHH | not soluble |
| MNPASPFATLTDRIDWQKVDGLVPAIVQDFQSSQVLMMGYMNPEALQKTLDTQQVTFFSRSKQRLWTKGETSGHVLQLKNIALDCDQDTLLVKVNPIGPTCHTGTVTCWDGDAQEESQMVWLHQLEQLLAERKNADPSSSYTASLYARGTKRIAQKVGEEGVEVALAATAGDKEELICESADLMYHLLVLLQEQGLAMNDVINKLKERHK | not soluble |
| MGLSPSAPAVAVQASNASASPPSGCPMHEGKMKGCPVNTEPSGPTCEKKTYSVPAHQERAYEYVECPIRGTAAENKENLDPSNLMPPPNQTPAPDQPFALSTVREESSIPRADSEKKWVYPSEQMFWNAMLKKGWKWKDEDISQKDMYNIIRIHNQNNEQAWKEILKWEALHAAECPCGPSLIRFGGKAKEYSPRARIRSWMGYELPFDRHDWIINRCGTEVRYVIDYYDGGEVNKDYQFTILDVRPALDSLSAVWDRMKVAWWRWTS | soluble |
| MSLILENEVIWDPERYVLGNYIQNKINDVFLKTIHSKLSGNILDIGCGDGHYTSLLAGKVKHGQILGIDSSEQMIMHANQQWARTGLSFEVHNIEEFHQPQSFDLVLSFWCLHWTNIHISFPNIFHLLKREGKLYAVMSSFSDHSILQTWKELAKQNLYRDLTKQYISPINEQYFYGVINLLNRLPFKRIKLDLKTCRVHLPHIDYYKNLLLTMPFIKRVPSEITDTLVEDMLKAFQTICDRKYGGELYYETRPIFLEAIKEGHHHHHH | not soluble |
